US20250325675A1, “APTAMER, CONJUGATE, COMPOSITION, METHOD FOR PREPARING SAME, AND USE THEREOF” (priority 2022, published 2025)
{MMAE} = monomethyl auristatin E payload; {Cy5} = cyanine 5 fluorescent dye

Legend:
[1] = system: U118MG in situ brain glioma; assay: In vivo distribution in U118MG cell tumor in situ model mice (Experimental Example 5); conditions: control groups 5C (intrathecal 100 μg) and 5F (tail vein 3 mg/kg); 24 h and 48 h
Experimental: U118MG human glioma cells in the logarithmic growth phase cultured as described in experimental Example 4 were selected and digested with 0.25% pancreatic enzyme. The cells were collected, the supernatant was aspirated, and then the cells were resuspended in DMEM medium supplemented with 10% FBS to be formulated into a cell culture solution with a cell density of 4×10^7 cells/mL.
Experimental animals were 16 NOD-SCID mice (male, 12 weeks old, purchased from SPF (Beijing) Biotechnology Co., LTD.). […]
AP1, AP2 and comparative AP11 were respectively dissolved into conjugate solutions with a concentration of 0.3 mg/mL (based on aptamer) with 1×DMEM medium. […] The administration dosage for all animals was calculated according to body weight, the administration volume was all 10 μL/g, and the administration dosage was 3 mg/kg per animal (based on the amount of aptamer). […]
At 24 h after administration, one mouse in each group was respectively euthanized and brain tissue was taken, and the remaining mice were euthanized at 48 h after administration and brain tissues were taken. The brain tissues of mice were taken for fluorescence imaging in IVIS Lumina Series III.

[2] = system: U118MG glioma subcutaneous tumor; assay: In vivo distribution in U118MG cell subcutaneous tumor model mice (Experimental Example 4); set-up: species or system NOD-SCID mice; conditions: 3 mg/kg tail vein injection; 1 h, 4 h, 24 h, 48 h after administration
Experimental: U118MG human glioma cells in the logarithmic growth phase were selected and digested (0.25% pancreatic enzyme).
The mice were further fed for 20 days after injection.
The mice inoculated with U118MG above were randomly divided into 3 groups (4 mice per group). For the 4 mice per group, the administration volume was calculated according to 10 μL/g body weight, and AP1, AP2 and comparative AP11 were respectively administered to different groups of mice by tail vein injection and designated as test group 4A1, test group 4A2 and control group 4A3. Thus, the administration dosage of each mouse was 3 mg/kg (based on aptamer). Another mouse inoculated with U118MG above was administered with 1×DMEM medium by tail vein injection (the administration volume was 10 μL/g body weight), and designated as blank control group 4Y.

[3] = system: A549 subcutaneous tumors; assay: In vivo activity in A549 subcutaneous tumor model mice (Experimental Example 25); conditions: 5 mg/kg (MMAE equivalent 0.3 mg/kg) D8, D12, D15, D19; 0.6 mg/kg MMAE equivalent D46, D50, D54; at each period of time
Experimental: According to the method of Experimental Example 4, 30 mice inoculated with A549 subcutaneous tumors were obtained, and were further fed after injection.
Conjugate 20 and conjugate 39 were dissolved into conjugate solutions with a concentration of 1 mg/mL (based on aptamer) with serum-free DMEM medium. Comparative conjugate 43 was dissolved into a conjugate solution with a concentration of 0.8 mg/mL (based on aptamer). MMAE was dissolved into a solution with a concentration of 0.06 mg/mL with 10% DMSO+90% serum-free DMEM medium (volume ratio).
7 days after the inoculation of A549 human lung cancer cells, all mice were divided into groups (6 mice each group), and each mouse was administered. The day of administration was designated as D8. The mice were weighed before administration, and the administration volume was calculated according to mouse body weight.
Each group of mice was administered once on D8, D12, D15, and D19, four times in total. […]
Tumor volumes were measured on D1, D9, D16, D19, D22, D26, D30, D36, D40, D43, D47, D50, D54, and D57, wherein the blank control group was measured on D54, and then the experiment was terminated.
The long diameters and short diameters of the tumors were measured in vitro. The tumor volume was calculated according to the equation ½ (long diameter×short diameter^2).

Substance | fluorescence signal at the tumor site, brain tissue [1] | fluorescence signal in mice / at site of tumor inoculation [2] | tumor volume versus control groups 25b (MMAE) and 25e (comparative conjugate 43) [3]
CY5-UfCfUfAUfGGCfUfGCfCfGAUfCfUfGGUfCfUfCfCfAUfGUfACfGUf (UCUAUGGCUGCCGAUCUGGUCUCCAUGUACGU; 2'-fluoro at CU, RNA at AG, 5' {Cy5}, backbone not given here) [comparative AP11, reference compound] | no obvious fluorescence signal at the tumor site | substantially no or weak fluorescence signal | –
MMAE-CmUmGmGmAmGmUmUmCmAmGmAmCmGmUmGmUmUmGmCmUmCmUmUmCmCmGmAmUmCmUmCm (CUGGAGUUCAGACGUGUUGCUCUUCCGAUCUC; all 2'-O-methyl, 5' {MMAE}, backbone not given here) [conjugate 20] | – | – | smaller than those of control groups 25b and 25e
MMAE-CmUmGmGmAmGmUmUmCmAmGmAmCmGmUmUmGmUmGmCmUmCmUmUm (CUGGAGUUCAGACGUUGUGCUCUU; all 2'-O-methyl, 5' {MMAE}, backbone not given here) [conjugate 39] | – | – | smaller than those of control groups 25b and 25e
